Results on ten molecules are retold here after EP4772613A1 (GI Cell, Inc., dated 2026).

First the molecules themselves.
T1: IL-2Rβ and common γ chain on HEK-Blue CD122/132 cells (InvivoGen hkb-il2bg) (UniProt P14784 27-551; P31785 23-369, limits assumed)
T1 sequence (looked up) 1: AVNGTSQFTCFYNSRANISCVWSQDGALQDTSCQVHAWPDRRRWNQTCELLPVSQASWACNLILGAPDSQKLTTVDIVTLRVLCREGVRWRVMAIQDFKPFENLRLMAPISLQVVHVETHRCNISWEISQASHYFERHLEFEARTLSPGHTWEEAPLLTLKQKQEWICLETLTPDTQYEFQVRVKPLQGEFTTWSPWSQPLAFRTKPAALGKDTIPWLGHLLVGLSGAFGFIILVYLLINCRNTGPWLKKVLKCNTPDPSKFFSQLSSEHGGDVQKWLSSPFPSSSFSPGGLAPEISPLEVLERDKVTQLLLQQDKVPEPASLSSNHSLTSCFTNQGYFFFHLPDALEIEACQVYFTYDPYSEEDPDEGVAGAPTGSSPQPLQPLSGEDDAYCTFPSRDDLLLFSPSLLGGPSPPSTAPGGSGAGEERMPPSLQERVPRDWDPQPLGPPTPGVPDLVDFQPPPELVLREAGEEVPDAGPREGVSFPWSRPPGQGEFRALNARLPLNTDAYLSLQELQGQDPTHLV
T1 sequence (looked up) 2: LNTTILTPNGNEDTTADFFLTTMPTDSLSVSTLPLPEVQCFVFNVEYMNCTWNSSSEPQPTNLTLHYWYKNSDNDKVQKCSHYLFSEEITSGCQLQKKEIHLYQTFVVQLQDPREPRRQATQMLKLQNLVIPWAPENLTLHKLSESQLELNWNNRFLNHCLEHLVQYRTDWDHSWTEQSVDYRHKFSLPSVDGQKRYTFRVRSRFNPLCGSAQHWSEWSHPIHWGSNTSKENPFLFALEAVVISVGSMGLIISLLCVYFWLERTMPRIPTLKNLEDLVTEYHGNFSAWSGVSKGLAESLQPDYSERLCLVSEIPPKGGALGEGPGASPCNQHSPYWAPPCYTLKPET

T2: IL-2Rβ-his (Acro CD2-H5221) (UniProt P14784 27-239)
T2 construct: also called CD122; not shown: his tag
T2 sequence (looked up): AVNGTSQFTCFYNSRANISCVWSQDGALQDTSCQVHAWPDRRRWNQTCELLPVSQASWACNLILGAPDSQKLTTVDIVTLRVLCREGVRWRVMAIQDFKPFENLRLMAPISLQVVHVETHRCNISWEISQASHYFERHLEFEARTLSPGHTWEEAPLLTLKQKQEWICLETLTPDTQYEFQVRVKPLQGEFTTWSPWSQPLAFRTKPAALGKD

B1: GIC-982C1 (IL-2/IL-15) (Fc fusion)
chain: GSAESKYGPPCPPCPAPEAAGGPSVFLFPPKPKDQLMISRTPEVTCVVVDVSQEDPEVQFNWYVDGVEVHNAKTKPREEQFNSTYRVVSVLTVLHQDWLNGKEYKCKVSNKGLPSSIEKTISKAKGQPREPQVYTLPPSQEEMTKNQVSLTCLVKGFYPSDIAVEWESNGQPENNYKTTPPVLDSDGSFFLYSRLTVDKSRWQEGNVFSCSVLHEALHNHYTQKSLSLSLGGGGGSGGGGSITCPPPMSVEHADIWVKSYSLYSRERYICNSGFKRKAGTSSLTECVLNKATNVAHWTTPSLKCIRGGGGSGGGGSGGGGSGGGGSAPTSSSTKKTQLQLEHLLLDLQMILNGSMHIDATLYTESDVHPSCKVTAMKCFLLELQVISLESKNFHLRPRDLISNINVIVLELKGSNGNVTESGCKECEELEEKNIVEFLNRWITFCQSIISTLT
B2: GIC-982C13 (IL-2/IL-15v6) (S76E) (Fc fusion)
chain: B1 chain with S402E
B3: GIC-982C3 (IL-2/IL-15v2) (L74F) (Fc fusion)
chain: B1 chain with L400F
notes: the entry already holds the change
B4: GIC-982C6 (IL-2/IL-15v5) (V80L) (Fc fusion)
chain: B1 chain with V406L
notes: as for B3
B5: GIC-982C4 (IL-2/IL-15v3) (S76D) (Fc fusion)
chain: B1 chain with S402D
notes: as for B3
B6: GIC-982C14 (IL-2/IL-15v7) (S76N) (Fc fusion)
chain: B1 chain with S402N
B7: GIC-982C2 (IL-2/IL-15v1) (D73E) (Fc fusion)
chain: B1 chain with D399E
notes: as for B3
B8: GIC-982C15 (IL-2/IL-15v8) (S76K) (Fc fusion)
chain: B1 chain with S402K
B9: GIC-982C12 (IL-2/IL-15v11) (D73E, L74F, S76D, N77D, V80L) (Fc fusion)
chain: B1 chain with D399E, L400F, S402D, N403D, V406L
notes: the entry already holds the changes
B10: GIC-982C5 (IL-2/IL-15v4) (N77D) (Fc fusion)
chain: B1 chain with N403D
notes: as for B3

Where a chain is given by its changes, count along the chain named. Names and notes keep the numbering of the source.

For the first test, the target named is T1, IL-2Rβ and common γ chain on HEK-Blue …. Briefly: cell-based or functional assay.
With B1, the “EC50 (ng/ml), STAT5 activity, HEK-Blue CD122/132 reporter cells” value (shortened to “EC50 (ng/ml), STAT5 activity”) is 1730 ng/mL.

As to B2, the “EC50 (ng/ml), STAT5 activity” value is 1390 ng/mL.

With B3, the “EC50 (ng/ml), STAT5 activity” value is 9740 ng/mL.

For the molecule B4, the “EC50 (ng/ml), STAT5 activity” value came to 723 ng/mL.

Take B5: the “EC50 (ng/ml), STAT5 activity” value is 255 ng/mL.

Turning to B6, the “EC50 (ng/ml), STAT5 activity” value was 997 ng/mL.

For the molecule B7, the “EC50 (ng/ml), STAT5 activity” value turned out to be 1080 ng/mL.

For the molecule B8, the “EC50 (ng/ml), STAT5 activity” value stood at 134 ng/mL.

Another test deals with T2, IL-2Rβ-his (Acro CD2-H5221). In words: Octet BLI; IL-2Rβ-his on Ni-NTA sensor, analyte 2,000 to 31.25 nM.
B1: binding was characterised by a dissociation constant (Kd) of 387 nM; the koff – broadly, the rate constant with which the complex falls apart – turned out to be 0.000335 s⁻¹; the association rate constant (kon) (commonly a measure of how fast the partners come together) was found to be 866 M⁻¹ s⁻¹.

B2: the dissociation constant (Kd) (in general, the concentration at which binding is half-saturated) was found to be 105 nM; the dissociation rate constant (koff) worked out at 0.000204 s⁻¹; the kon stood at 1930 M⁻¹ s⁻¹.

B3: the equilibrium dissociation constant (Kd) is 302 nM, the dissociation rate constant (koff) was 0.000481 s⁻¹ and the on-rate constant (kon) was 1590 M⁻¹ s⁻¹.

B4: the dissociation constant (Kd) amounted to 386 nM, the koff worked out at 0.000435 s⁻¹ and the on-rate (kon) amounted to 1130 M⁻¹ s⁻¹.

With B5, the Kd worked out at 144 nM, the off-rate constant (koff) was 0.000338 s⁻¹ and the kon came to 2350 M⁻¹ s⁻¹.

B6: the equilibrium dissociation constant (Kd) stood at 327 nM, the koff is 0.000223 s⁻¹ and the kon stood at 686 M⁻¹ s⁻¹.

As for B7, binding was put at a Kd of 215 nM, the koff stood at 0.000148 s⁻¹ and the association rate constant (kon) came out at 686 M⁻¹ s⁻¹.

B9: binding was put at a Kd of 265 nM, the koff was 9.11e-05 s⁻¹ and the on-rate (kon) came out at 344 M⁻¹ s⁻¹.

Molecule B8 showed an equilibrium dissociation constant (Kd) of 178 nM, an off-rate (koff) of 0.000476 s⁻¹ and a kon of 2670 M⁻¹ s⁻¹.

B10 gave a Kd of 1290 nM, a koff of 0.000313 s⁻¹ and an on-rate constant (kon) of 242 M⁻¹ s⁻¹.
